Substitutions are numbered along the chain they refer to. Like-named read-outs stand apart in the source and are kept apart here. Blank lines part the entries; values can stand above or below the binder they belong to.
Assays:
[1] = target: T1, murine CD27-FcHis fusion protein (murine, UniProt P41272 24-182); test: SPR
T1 chain: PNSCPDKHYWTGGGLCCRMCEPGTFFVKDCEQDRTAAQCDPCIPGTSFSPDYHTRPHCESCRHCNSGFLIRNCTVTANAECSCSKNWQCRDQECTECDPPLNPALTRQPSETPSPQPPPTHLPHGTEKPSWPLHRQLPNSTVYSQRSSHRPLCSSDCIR

[2] = target: T2, rhesus monkey CD27-Fc protein (rhesus monkey); test: BLI
T2 chain: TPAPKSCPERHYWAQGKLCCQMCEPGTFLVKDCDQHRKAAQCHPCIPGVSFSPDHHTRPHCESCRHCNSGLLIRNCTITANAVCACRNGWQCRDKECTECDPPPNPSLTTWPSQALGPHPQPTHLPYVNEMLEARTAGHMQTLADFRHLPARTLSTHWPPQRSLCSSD

[3] = target: T3, human CD27-HisFc fusion protein (human, UniProt P26842 20-192); test: BLI
T3 chain: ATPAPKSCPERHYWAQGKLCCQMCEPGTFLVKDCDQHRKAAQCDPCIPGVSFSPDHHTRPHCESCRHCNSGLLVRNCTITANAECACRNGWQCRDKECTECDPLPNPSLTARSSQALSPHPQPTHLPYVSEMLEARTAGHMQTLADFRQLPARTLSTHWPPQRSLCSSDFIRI

human CD27-His = test: SPR
[4] = target: T4, human CD27 expressed on the cell surface of transfected HEK293 cells (human, UniProt P26842 20-260); test: flow cytometry
[5] = target: T5, murine CD27 expressed on the cell surface of transfected HEK293 cells (murine, UniProt P41272 24-250); test: flow cytometry
T5 chain: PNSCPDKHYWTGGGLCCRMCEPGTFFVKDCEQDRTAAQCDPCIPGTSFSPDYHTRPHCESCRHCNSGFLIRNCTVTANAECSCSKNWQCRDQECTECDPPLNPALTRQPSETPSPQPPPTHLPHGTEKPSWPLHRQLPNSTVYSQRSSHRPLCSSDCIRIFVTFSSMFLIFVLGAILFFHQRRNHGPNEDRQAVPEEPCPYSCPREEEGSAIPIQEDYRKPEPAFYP

[6] = target: T4, human CD27 expressed on the cell …; test: flow cytometry; remark: listed apart in the source
[7] = target: T5, murine CD27 expressed on the cell …; test: flow cytometry

B1: anti-CD27 antibody mAb077 (IgG1 form) (antibody, V domains shown)
VH: EVQLVESGGGLVQPGGSLRLSCAASGFTFSGYGIHWVRQAPGKGLEWIGWINPNRGSTKYAQKFQGRVTISRDNSKNTLYLQLNSLRAEDTAVYYCARDPGYTWYFDVWGQGTLVTVSS
VL: DIQLTQSPSSLSASVGDRVTITCRASQDISSDLAWYQQKPGKAPKLLIYAASTLQSGVPSRFSGSGSGTDFTLTISSLQPEDFATYYCQQRDAWPPTFGQGTKVEIK
Kd [1]: 0.0304 nM
Kd [2]: 0.562 nM

B2: mAb076 antibody Fab fragment with C-terminal histidine tag (Fab, V domains shown)
VH: B1 VH with G31D, K59N, P100Y
VL: B1 VL with D32V, T53S, P96L
Kd [3]: 1.61 nM

B6: anti-CD27 antibody mAb076 (IgG1 form) (antibody, V domains shown)
VH: B1 VH with G31D, K59N, P100Y
VL: B1 VL with D32V, T53S, P96L
Kd [4]: 0.16 nM
Kd [5]: 0.3 nM
Kd [1]: 0.0754 nM
Kd [2]: < 0.001 nM

B7: 1F5-IgG (antibody, V domains shown)
VH: QVQLVESGGGVVQPGRSLRLSCAASGFTFSSYDMHWVRQAPGKGLEWVAVIWYDGSNKYYADSVKGRFTISRDNSKNTLYLQMNSLRAEDTAVYYCARGSGNWGFFDYWGQGTLVTVSS
VL: DIQMTQSPSSLSASVGDRVTITCRASQGISRWLAWYQQKPEKAPKSLIYAASSLQSGVPSRFSGSGSGTDFTLTISSLQPEDFATYYCQQYNTYPRTFGQGTKVEIK
Kd (human CD27-His): 1.39 nM

Continued, values first:

Kd [3]: 4.08 nM
B3: mAb077 antibody Fab fragment with C-terminal histidine tag (Fab, V domains shown)
VH: B1 VH
VL: B1 VL

Kd (human CD27-His): 0.137 nM
B4: mAb077-IgG (antibody, V domains shown)
VH: B1 VH
VL: B1 VL

Kd (human CD27-His): 0.332 nM
B5: mAb076-IgG (antibody, V domains shown)
VH: B1 VH with G31D, K59N, P100Y
VL: B1 VL with D32V, T53S, P96L

Kd [6]: 0.56 nM
Kd [7]: 31 nM
Kd [2]: 2.13 nM
B8: reference antibody 1F5 (antibody, V domains shown)
VH: B7 VH
VL: B7 VL

— patent US20190225698A1 (published 2019)
